# Measurements as given in US20030022275, “HUMAN NK-3 RELATED PROSTATE SPECIFIC GENE-1” (published 2003).
# B1: C site (NKX2.1 consensus, CAAG core) (dsDNA)
# DNA 1: CACTGCCCAGTCAAGTGTTCTTGA
# DNA 2: TCAAGAACACTTGACTGGGCAGTG
# B2: mutated C site (CACG) (dsDNA)
# DNA 1: CACTGCCCAGTCACGTGTTCGTGA
# DNA 2: TCACGAACACGTGACTGGGCAGTG
# B3: site 6-19 (mutated TAAT core) (dsDNA)
# DNA 1: ACACTACTTGGAGGC
# DNA 2: GCCTCCAAGTAGTGT
# Experiments:
# [1] = biological target: T1, NKX3.1 homeodomain (NKX3.1HD) (Homo sapiens, UniProt Q99801 SEQ:122-188); assay: EMSA; human protein stated to behave identically to murine in DNA binding; details: tags: N-terminal 6xHis (pQE-9, E. coli); label: 32P
# Procedure: (§1) The DNA binding experiments were performed as follows. Briefly, increasing amounts of protein were incubated in binding buffer [10 mM Tris-HCl ([…]), 50 mM NaCl, 5% glycerol, 5% sucrose, 0.2 mM EDTA, 7.5 mM MgCl₂, 0.5 mg/mL bovine serum albumin, 0.1% NP-40, 10 mM DTT, 500 μg of poly-didC] with 4×10⁴ cpm of ³²P-labeled, double stranded oligonucleotide for 20 min at room temperature. The sequences of the DNA binding sites were as follows (top strand shown):
# (§2) The DNA binding specificity of NKX3.1HD was examined by gel mobility shift analysis using various DNA sites identified for NK-like and Antennapedia-like homeodomains. The DNA sites were as follows: (i) the consensus DNA site for the NKX2.1 homeodomain (TCAAGTG) (Guazzi, S. et al., EMBO J. 9:3631-3639 (1990)) and a mutated version of this site that contains nucleotide substitutions within the CAAG core (TCACGTG); and (ii) the consensus DNA site identified for an Antennapedia-like homeodomain (Msx1) (CTAATTG), a mutated version of this site that contains nucleotide substitutions within the TAAT core (CTACTTG), or one that contains nucleotide substitutions 3′ of the TAAT core (CTAATGG) (Catron, K. M. et al., Mol. Cell. Biol. 13;2354-2365 (1993); Guazzi, S. et al., EMBO J. 9:3631-3639 (1990)). […]
# [2] = biological target: T1, NKX3.1 homeodomain (NKX3.1HD); assay: EMSA; human protein stated to behave identically to murine; details: tags: N-terminal 6xHis (pQE-9, E. coli); label: 32P
# Procedure: as §1, §2
Binder,binding result [1],binding result [2]
B1,binds,
B2,,no binding
B3,,no binding
